We go through one molecule from patent US9382311.

The target of the experiment is T1, YU2 gp120 (HIV-1, UniProt P35961 32-498).
T1 construct: domain: gp120
The experiment can be described thus: ELISA (FIG. 3). A general note: In an ELISA, binding on a coated surface is turned into a signal by an enzyme label.

B1: VRC-PG-04 (antibody, V domains shown)
VH: QVQLVQSGSGVKKPGASVRVSCWTSEDIFERTELIHWVRQAPGQGLEWIGWVKTVTGAVNFGSPDFRQRVSLTRDRDLFTAHMDIRGLTQGDTATYFCARQKFYTGGQGWYFDLWGRGTLIVVSS
VL: EIVLTQSPGTLSLSPGETASLSCTAASYGHMTWYQKKPGQPPKLLIFATSKRASGIPDRFSGSQFGKQYTLTITRMEPEDFARYYCQQLEFFGQGTRLEIR
notes: also called PGV04
With B1, the binding result is reported as “binds”.
